The source of these data is patent publication US20240043537A1.

In general, Kd refers to the constant that tells how readily two partners part at equilibrium. High values mean a looser complex, low ones a tighter complex. The koff is the first-order rate constant of dissociation. In general, kon refers to a measure of how fast the partners come together.

The chains are these.
B1: DART-A-M2 (bispecific antibody)
chain 1: DFVMTQSPDSLAVSLGERVTMSCKSSQSLLNSGNQKNYLTWYQQKPGQPPKLLIYWASTRESGVPDRFSGSGSGTDFTLTISSLQAEDVAVYYCQNDYSYPYTFGQGTKLEIKGGGSGGGGEVQLVESGGGLVQPGGSLRLSCAASGFTFSTYAMNWVRQAPGKGLEWVGRIRSKYNNYATYYADSVKDRFTISRDDSKNSLYLQMNSLKTEDTAVYYCVRHKNFGNSYVTWFAYWGQGTLVTVSSGGCGGGKVAALKEKVAALKEKVAALKEKVAALKE
chain 2: QAVVTQEPSLTVSPGGTVTLTCRSSTGAVTTSNYANWVQQKPGQAPRGLIGGTNKRAPWTPARFSGSLLGGKAALTITGAQAEDEADYYCALWYSNLWVFGGGTKLTVLGGGGSGGGGEVQLVQSGAELKKPGASVKVSCKASGYTFTDYYMKWVRQAPGQGLEWIGDIIPSNGATFYNQKFKGRVTITVDKSTSTAYMELSSLRSEDTAVYYCARSHLLRASWFAYWGQGTLVTVSSGGCGGGEVAALEKEVAALEKEVAALEKEVAALEK
B2: DART-A-M8 (bispecific antibody)
chain 1: B1 chain 1 with K223E, T231S
chain 2: B1 chain 2
B3: DART-A-M22 (bispecific antibody)
chain 1: B1 chain 1 with T231S, W232Y
chain 2: B1 chain 2
B4: DART-A-M1 (bispecific antibody)
chain 1: B1 chain 1 with K223G
chain 2: B1 chain 2

Changes are numbered by the printed parent chain.

In the first test the target is CD3 (as used for the BIACORE kinetics of Table 11) (UniProt P07766). Put plainly: SPR (BIACORE). (In general: SPR reads the build-up and loss of mass on a sensor chip optically.)
CD3 (as used for the BIACORE kinetics of Table 11), sequence (P07766 23-126): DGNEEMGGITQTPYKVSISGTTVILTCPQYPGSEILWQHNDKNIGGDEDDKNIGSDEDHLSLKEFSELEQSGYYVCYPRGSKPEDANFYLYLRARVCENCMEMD
In the case of B1, the Kd is 12.7 nM, the R (KD ratio to DART-A-WT) is 1.6, the R (ka ratio to DART-A-WT) worked out at 6.1 and the R (kd ratio to DART-A-WT) came out at 9.6. This molecule also returned a koff of 0.0391 s⁻¹ and a kon of 3.07e+06 M⁻¹ s⁻¹.

B2: the Kd stood at 6.91 nM, the R (KD ratio to DART-A-WT) stood at 0.8, the R (ka ratio to DART-A-WT) was 2.3 and the R (kd ratio to DART-A-WT) came out at 1.9. Moreover, the koff was found to be 0.00784 s⁻¹ and the kon was found to be 1.13e+06 M⁻¹ s⁻¹.

Turning to B3, the Kd amounted to 6.6 nM, the R (KD ratio to DART-A-WT) amounted to 0.8, the R (ka ratio to DART-A-WT) was found to be 4.7 and the R (kd ratio to DART-A-WT) came to 3.8. For the same molecule, the koff turned out to be 0.0156 s⁻¹ and the kon came to 2.37e+06 M⁻¹ s⁻¹.

For the molecule B4, the Kd turned out to be 159 nM, the R (KD ratio to DART-A-WT) worked out at 19, the R (ka ratio to DART-A-WT) was found to be 0.8 and the R (kd ratio to DART-A-WT) worked out at 16. Further, the koff stood at 0.065 s⁻¹ and the kon amounted to 408000 M⁻¹ s⁻¹.

A further test deals with CD3 on T-cells (UniProt P07766). Description: cell-based or functional assay.
CD3 on T-cells, sequence (P07766 23-207): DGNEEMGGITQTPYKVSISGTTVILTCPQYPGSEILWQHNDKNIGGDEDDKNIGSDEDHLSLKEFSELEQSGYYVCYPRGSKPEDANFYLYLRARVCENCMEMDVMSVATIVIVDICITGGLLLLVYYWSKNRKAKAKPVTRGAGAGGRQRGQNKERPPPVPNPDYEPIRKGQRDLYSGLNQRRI
As for B1, the EC50 of cytolysis at 18 hours (CTL assay, Pan-T-cells and MOLM-13, E:T = 5:1) is 8.11 ng/mL; the EC50 of cytolysis at 42 hours (CTL assay, Pan-T-cells and MOLM-13, E:T = 5:1) came out at 0.693 ng/mL; the R: ratio of 18 hour EC50 to DART-A-WT (CTL assay, Pan-T-cells and MOLM-13, E:T = 5:1) amounted to 103; the R: ratio of 42 hour EC50 to DART-A-WT (CTL assay, Pan-T-cells and MOLM-13, E:T = 5:1) was found to be 247. For the same molecule, the max % CytoTox at 18 hours (CTL assay, Pan-T-cells and MOLM-13, E:T = 5:1) came out at 32.3%; the max % CytoTox at 42 hours (CTL assay, Pan-T-cells and MOLM-13, E:T = 5:1) is 32.8%.

For the molecule B2, the EC50 of cytolysis at 18 hours (CTL assay, Pan-T-cells and MOLM-13, E:T = 5:1) is 0.069 ng/mL; the EC50 of cytolysis at 42 hours (CTL assay, Pan-T-cells and MOLM-13, E:T = 5:1) came to 0.005 ng/mL; the R: ratio of 18 hour EC50 to DART-A-WT (CTL assay, Pan-T-cells and MOLM-13, E:T = 5:1) was 0.9; the R: ratio of 42 hour EC50 to DART-A-WT (CTL assay, Pan-T-cells and MOLM-13, E:T = 5:1) was 1.7. The molecule further showed a max % CytoTox at 18 hours (CTL assay, Pan-T-cells and MOLM-13, E:T = 5:1) of 38.4%; a max % CytoTox at 42 hours (CTL assay, Pan-T-cells and MOLM-13, E:T = 5:1) of 29.4%.

As for B3, the EC50 of cytolysis at 18 hours (CTL assay, Pan-T-cells and MOLM-13, E:T = 5:1) was found to be 0.072 ng/mL; the EC50 of cytolysis at 42 hours (CTL assay, Pan-T-cells and MOLM-13, E:T = 5:1) came to 0.01 ng/mL; the R: ratio of 18 hour EC50 to DART-A-WT (CTL assay, Pan-T-cells and MOLM-13, E:T = 5:1) was 0.9; the R: ratio of 42 hour EC50 to DART-A-WT (CTL assay, Pan-T-cells and MOLM-13, E:T = 5:1) came to 3.5. In addition, the max % CytoTox at 18 hours (CTL assay, Pan-T-cells and MOLM-13, E:T = 5:1) is 38.3%; the max % CytoTox at 42 hours (CTL assay, Pan-T-cells and MOLM-13, E:T = 5:1) came out at 31.6%.

As for B4, the EC50 of cytolysis at 18 hours (CTL assay, Pan-T-cells and MOLM-13, E:T = 5:1) was 19.6 ng/mL; the EC50 of cytolysis at 42 hours (CTL assay, Pan-T-cells and MOLM-13, E:T = 5:1) is 2.34 ng/mL; the R: ratio of 18 hour EC50 to DART-A-WT (CTL assay, Pan-T-cells and MOLM-13, E:T = 5:1) was determined as 249; the R: ratio of 42 hour EC50 to DART-A-WT (CTL assay, Pan-T-cells and MOLM-13, E:T = 5:1) was 832. The same molecule came in with a max % CytoTox at 18 hours (CTL assay, Pan-T-cells and MOLM-13, E:T = 5:1) of 32.3%; a max % CytoTox at 42 hours (CTL assay, Pan-T-cells and MOLM-13, E:T = 5:1) of 32.4%.
